For assay [1], the target named is T1, neuropilin-1 by forced expression in M21 cells (transfected neuropilin-1 cDNA) (UniProt O14786 22-923, limits assumed). The experiment in a line: cell-based or functional assay.
Assay [2] has as its target T1, neuropilin-1 by forced expression in …. The experiment in a line: phage binding to M21 cells transfected with neuropilin-1 cDNA against vector alone or untransfected cells, phage titration.
Method: Suspended cells (10⁶ cells in DMEM containing 1% BSA) were incubated with 10⁸ pfu/ml of T7 phage for 1 hr at 4° C. The cells were washed 4 times with the binding buffer, lysed with lysogeny broth containing 1% NP-40, and titrated. Phage internalization assays used the same procedure, except that the cells were incubated with phage at 37° C., and that an acidic buffer (500 mM sodium chloride, 0.1 M glycine, 1% BSA, pH 2.5) was substituted for the binding buffer in the second wash. Inhibitors of binding and internalization were added 20 min prior to incubation with phage. […] Free synthetic peptides, mouse antibodies against human α1, α2, αvβ3, αvβ5, α5β1, α4, or αv integrins and integrin subunits (Chemicon), goat anti-rat neuropilin-1 (R&D Systems, Minneapolis, Minn.), with mouse and a goat IgG isotype controls (Abcam) were also tested.

Ends that are not written are not given here.

T1 sequence (O14786 22-923 limits assumed): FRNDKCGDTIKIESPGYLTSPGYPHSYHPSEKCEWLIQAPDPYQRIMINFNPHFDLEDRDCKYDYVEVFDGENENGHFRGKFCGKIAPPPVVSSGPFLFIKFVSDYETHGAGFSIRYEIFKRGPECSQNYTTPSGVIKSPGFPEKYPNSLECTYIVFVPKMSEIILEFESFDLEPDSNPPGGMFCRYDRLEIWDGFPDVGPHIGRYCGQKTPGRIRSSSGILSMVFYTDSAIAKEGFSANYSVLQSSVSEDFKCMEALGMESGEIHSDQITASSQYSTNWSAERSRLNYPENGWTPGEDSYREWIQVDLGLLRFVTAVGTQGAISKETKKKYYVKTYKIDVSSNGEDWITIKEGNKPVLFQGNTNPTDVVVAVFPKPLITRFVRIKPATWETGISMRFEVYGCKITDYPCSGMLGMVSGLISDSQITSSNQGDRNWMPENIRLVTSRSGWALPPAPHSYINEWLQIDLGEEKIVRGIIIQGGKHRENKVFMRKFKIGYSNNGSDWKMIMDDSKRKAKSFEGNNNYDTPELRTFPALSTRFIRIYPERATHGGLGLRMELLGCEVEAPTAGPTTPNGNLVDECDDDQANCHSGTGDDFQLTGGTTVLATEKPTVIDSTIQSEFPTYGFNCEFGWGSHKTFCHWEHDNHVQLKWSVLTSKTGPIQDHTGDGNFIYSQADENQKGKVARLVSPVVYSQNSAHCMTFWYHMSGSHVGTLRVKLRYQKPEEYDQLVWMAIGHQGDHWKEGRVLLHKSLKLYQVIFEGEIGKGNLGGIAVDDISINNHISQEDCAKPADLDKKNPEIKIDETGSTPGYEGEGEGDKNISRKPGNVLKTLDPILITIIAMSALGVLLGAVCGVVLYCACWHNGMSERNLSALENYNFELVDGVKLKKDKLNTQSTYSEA

B1: CRGDK phage (T7 phage displaying CRGDK) (peptide)
peptide: CRGDK
modifications: also: displayed on T7 phage
notes: CRGDK is the N-terminal proteolytic fragment of iRGD; also called CRGDK fragment; FAM-CRGDK
For B1, the “internalization of CRGDK phage into M21 cells” value in assay [1] worked out at 3.5 fold. In assay [2], the “fold increase of binding on forced expression of neuropilin-1 in M21 cells” value is 3.5 fold.

Values taken from patent US20130343989A1 (SANFORD BURNHAM MEDICAL RESEARCH INSTITUTE, published 2013).
